± gives the uncertainty stated by the source.
Experiment: self-splicing fitness, log relative to wild type (ln ratio); higher = more splicing; Tetrahymena group I intron in knt gene, E. coli kanamycin selection, DiMSum; sequences stand for … in CUCUCU…GGAGGGAAAAGUUAUCAGGCAUGCACCUGGUAGCUAGUCUUUAAACCAAUAGAUUGCAUCGGUUUAAAAGGCAAGACCGUCAAAUUGCGGGAAAGGGGUCAACAGCCGUUCAGUACCAAGUCUCAGGGGAAACUUUGAGAUGGCCUUGCAAAGGGUAUGGUAAUAAGCUGACGGACAUGGUCCUAACCACGCAGCCAAGUCCUAAGUCAACAGAUCUUCUGUUGAUAUGGAUGCAGUUCACAGACUAAAUGUCGGUCGGGGAAGAUGUAUUCUUCUCAUAAGAUAUAGUCGGACCUCUCCUUAAUGGGAGCUAGCGGAUGAAGUGAUGCAACACUGGAGCCGCUGGGAACUAAUUUGUAUGCGAAAGUAUAUUGAUUAGUUUUGGAGUACUCGUGGUCG
How it was run: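 Library with all eight P1ex-region intron nucleotides randomised, intron inside the knt kanamycin-resistance gene on pET-22b(+), in E. coli BL21(DE3). Cells grew overnight at 37°C or 30°C on LB agar with or without 25 μg/mL kanamycin (plus 100 μg/mL carbenicillin, 50 μM IPTG, 0.2% rhamnose), in six replicate transformations. Pooled colonies were amplicon-sequenced on Illumina HiSeq 2500. DiMSum fitness is the error-weighted combination of wild-type-normalised replicate fold changes, kanamycin versus none.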

| Sequence | self-splicing fitness (ln) (30 °C) | self-splicing fitness (ln) (37 °C) |
| --- | --- | --- |
| CUAUAGCAAUAUUACGAGUC | -2.61 ± 0.24 | -2.52 ± 0.3 |
| UGAAAGCAAUAUUACGUGCG | -0.35 ± 0.065 | -0.395 ± 0.073 |
| UAUCAGCAAUAUUACGCACC | -0.885 ± 0.22 | 0.3 ± 0.29 |
| CGCCAGCAAUAUUACGGGAA | -2.84 ± 0.12 | -1.64 ± 0.1 |
| GCCCAGCAAUAUUACGUGAA | -0.204 ± 0.053 | 0.177 ± 0.077 |
| UAGAAGCAAUAUUACGAUCC | -2.25 ± 0.23 | -1.45 ± 0.3 |
| CAGCAGCAAUAUUACGUUAU | -3.77 ± 0.19 | -2.93 ± 0.15 |
| UGCUAGCAAUAUUACGGGAC | -2.52 ± 0.2 | -1.92 ± 0.18 |
| CGCGAGCAAUAUUACGCAAC | -2.25 ± 0.31 |  |
| CUUAAGCAAUAUUACGCGGG | -2.83 ± 0.2 | -2.92 ± 0.31 |
| GAUGAGCAAUAUUACGCGUG | -0.71 ± 0.14 | -1.14 ± 0.16 |
| GACUAGCAAUAUUACGCGGA | -1.55 ± 0.13 | -0.984 ± 0.11 |
| GUGGAGCAAUAUUACGCAUU | -2.84 ± 0.22 | -1.14 ± 0.13 |
| CAAGAGCAAUAUUACGCAGG | -2.62 ± 0.13 | -2 ± 0.17 |
| AGAAAGCAAUAUUACGCCCG | -0.679 ± 0.19 | -0.0334 ± 0.19 |
| CGUUAGCAAUAUUACGGAAC | -3.05 ± 0.48 | -2.4 ± 0.41 |
| ACGGAGCAAUAUUACGCUUC | -2.92 ± 0.21 | -2.81 ± 0.23 |
| GUUUAGCAAUAUUACGUGUC | -0.806 ± 0.17 | -1.76 ± 0.17 |
| UUACAGCAAUAUUACGACAG | -1.02 ± 0.068 | -0.222 ± 0.083 |
| UUGAAGCAAUAUUACGCUAA | -0.361 ± 0.085 | -0.109 ± 0.097 |
| UAUAAGCAAUAUUACGACUG | 0.143 ± 0.076 | 0.22 ± 0.098 |
| AUAGAGCAAUAUUACGGCUU | -0.934 ± 0.12 | -1.34 ± 0.14 |
| AUGUAGCAAUAUUACGUAGU | -2.89 ± 0.18 | -1.42 ± 0.15 |
| CUUUAGCAAUAUUACGACGG | -0.354 ± 0.13 | -0.827 ± 0.16 |
| UUAUAGCAAUAUUACGUAGA | -1.34 ± 0.17 | -0.707 ± 0.17 |

| Sequence | self-splicing fitness (ln) (30 °C) | self-splicing fitness (ln) (37 °C) |
| --- | --- | --- |
| UCUUAGCAAUAUUACGCGAA |  | -1.19 ± 0.3 |
| GUUAAGCAAUAUUACGAUUG | -3.09 ± 0.34 | -1.63 ± 0.34 |
| UCUUAGCAAUAUUACGGGCC | -3.6 ± 0.32 | -1.41 ± 0.27 |
| AAAUAGCAAUAUUACGAUCG | -0.864 ± 0.091 | -0.18 ± 0.11 |
| UCACAGCAAUAUUACGAACC | -1.05 ± 0.33 | -1.68 ± 0.34 |
| GCUGAGCAAUAUUACGACGU | -1.45 ± 0.057 | -0.232 ± 0.064 |
| CACCAGCAAUAUUACGUGGU | -3.65 ± 0.1 | -3.16 ± 0.14 |
| CAAAAGCAAUAUUACGCCGC |  | -1.32 ± 0.48 |
| UUCAAGCAAUAUUACGAGAU | -3.07 ± 0.19 | -2.17 ± 0.18 |
| GUAUAGCAAUAUUACGGUGU | -3.29 ± 0.15 | -1.38 ± 0.11 |
| UGUCAGCAAUAUUACGUGUC |  | -2.37 ± 0.21 |
| UGGCAGCAAUAUUACGUCCC | 0.385 ± 0.14 | -0.074 ± 0.19 |
| AUCUAGCAAUAUUACGUGGU |  | -2.85 ± 0.38 |
| AAGGAGCAAUAUUACGCUUC |  | -1.88 ± 0.39 |
| GGUGAGCAAUAUUACGUACC | -3.31 ± 0.44 | -1.75 ± 0.37 |
| CGAAAGCAAUAUUACGAUCG | -3.41 ± 0.43 | -1.34 ± 0.29 |
| AAUGAGCAAUAUUACGGAGA | -2.59 ± 0.4 | -2.51 ± 0.34 |
| GACCAGCAAUAUUACGUGCG | -0.787 ± 0.082 | -0.644 ± 0.097 |
| GUUAAGCAAUAUUACGUGUG | -1.93 ± 0.093 | -1.21 ± 0.098 |
| UCUUAGCAAUAUUACGGGGC | -3.82 ± 0.3 | -3.03 ± 0.27 |
| CUGCAGCAAUAUUACGGAGA | -3.35 ± 0.22 | -2.83 ± 0.34 |
| AACGAGCAAUAUUACGCUCA | -1.83 ± 0.12 | -0.666 ± 0.13 |
| CCUGAGCAAUAUUACGACGU | -2.28 ± 0.14 | -0.0399 ± 0.14 |
| CUCGAGCAAUAUUACGGCGU | -1.96 ± 0.12 | -1.61 ± 0.18 |
| CCAGAGCAAUAUUACGGCUG | -1.9 ± 0.083 | -1 ± 0.12 |

Reference: the supplement of paper PMC7877785
